B1: CPEB3 Ribozyme (parent)
chain: GGGGGCCACAGCAGAAGCGUUCACGUCGCGGCCCCUGUCAGAUUCUGGUGAAUCUGCGAAUUCUGCUGU

Variants of: B1
Assay: self-cleavage, relative activity (ratio to wild type); higher = more cleavage; co-transcriptional

| Variant | self-cleavage |
| --- | --- |
| G19U A59U | 0.158 |
| G19U A59G | 0.66 |
| G19C C34G | 0.115 |
| G19C C34U | 0.209 |
| G19C C34A | 0.196 |
| C18U C33U | 0.821 |
| G19A C34A | 0.201 |
| G19A C34U | 0.181 |
| G19A C32A | 0.174 |
| C18U C54G | 0.456 |
| C18U C54A | 0.305 |
| C18U C54U | 0.852 |
| C18U U64G | 0.43 |
| G19U A52C | 0.432 |
| G19U A52U | 0.474 |
| G19U A52G | 0.589 |
| G19C C33G | 0.142 |
| G19C C33U | 0.181 |
| C18U U49G | 0.894 |
| G19C G41A | 0.142 |
| G19C G41C | 0.17 |
| G19A U55G | 0.099 |
| G19A U55C | 0.218 |
| G19A U55A | 0.185 |

| Variant | self-cleavage |
| --- | --- |
| G19A G58U | 0.194 |
| G19A G58C | 0.168 |
| G19A G65C | 0.127 |
| G19A G65A | 0.0987 |
| G19A G65U | 0.159 |
| C18U C35A | 0.24 |
| C18U C35G | 0.281 |
| C18U C24G | 0.164 |
| C18U C24A | 0.416 |
| C18U U53C | 0.47 |
| G19U C27A | 0.947 |
| G19U C27G | 0.82 |
| G19C A59G | 0.175 |
| G19C U53G | 0.158 |
| G19C U53A | 0.224 |
| G19A A51U | 0.245 |
| C18U G25A | 0.157 |
| C18U G25U | 0.17 |
| C18U G25C | 0.153 |
| G19A A52U | 0.156 |
| G19A A52G | 0.204 |
| G19A A52C | 0.183 |
| G19A | 0.167 |
| G19C | 0.154 |

| Variant | self-cleavage |
| --- | --- |
| G19U | 0.644 |
| C18U G68U | 0.943 |
| C18U G68A | 0.948 |
| C18U G68C | 0.924 |
| C18U A40C | 0.197 |
| C18U G47U | 0.928 |
| C18U G47C | 0.911 |
| C18U G47A | 0.975 |
| C18U G58U | 0.942 |
| C18U G58A | 0.801 |
| C18U G65A | 0.332 |
| C18U G65C | 0.363 |
| G19A A40U | 0.147 |
| G19A A40C | 0.123 |
| G19C U21C | 0.142 |
| G19C U21A | 0.109 |
| G19A C22U | 0.196 |
| G19A C22G | 0.148 |
| G19A U62A | 0.204 |
| G19A U62G | 0.169 |
| G19C C57A | 0.158 |
| G19C C57G | 0.132 |
| G19C C22A | 0.0962 |
| G19C C22G | 0.156 |

| Variant | self-cleavage |
| --- | --- |
| G19C U46C | 0.159 |
| G19C U46A | 0.177 |
| G19A U69A | 0.184 |
| G19A G31U | 0.146 |
| G19A G31C | 0.143 |
| C18U C63U | 0.678 |
| C18U C63A | 0.284 |
| C18U C63G | 0.306 |
| G19C U62G | 0.162 |
| C18U U21C | 0.389 |
| C18U U21G | 0.276 |
| C18U U21A | 0.807 |
| G19C U36A | 0.188 |
| G19C U36G | 0.141 |
| G19C U36C | 0.0775 |
| C18U A51G | 0.853 |
| C18U A51U | 0.851 |
| G19C G58C | 0.12 |
| G19C G58U | 0.19 |
| G19A C33U | 0.13 |
| G19A C33A | 0.126 |
| G19U C22U | 0.107 |
| G19U C22A | 0.14 |
| G19U C22G | 0.164 |

| Variant | self-cleavage |
| --- | --- |
| G19C A52C | 0.195 |
| G19C A52U | 0.189 |
| G19C A52G | 0.134 |
| G19A G41A | 0.153 |
| G19A G41U | 0.142 |
| G19A G41C | 0.187 |
| G19C U55A | 0.132 |
| G19C U55G | 0.172 |
| G19C U55C | 0.163 |
| C18U C34A | 0.352 |
| G19U A51G | 0.538 |
| G19U A51U | 0.476 |
| C18U U62C | 0.572 |
| C18U U62A | 0.402 |
| G19A G28C | 0.216 |
| G19A G28U | 0.132 |
| G19A G28A | 0.152 |
| G19C U69G | 0.231 |
| G19C U69C | 0.357 |
| G19A G56C | 0.0715 |
| G19A G56A | 0.104 |
| G19C C27U | 0.116 |
| G19C C27G | 0.961 |
| G19C A40G | 0.194 |

| Variant | self-cleavage |
| --- | --- |
| G19C A40U | 0.0999 |
| G19A C27U | 0.768 |
| G19A C27G | 0.656 |
| G19A C27A | 0.143 |
| C18U | 0.926 |
| G19C C32A | 0.146 |
| G19C C32U | 0.198 |
| G19C G56A | 0.16 |
| G19C G56C | 0.169 |
| C18U U38C | 0.694 |
| C18U U38A | 0.671 |
| C18U U38G | 0.116 |
| G19A G37U | 0.127 |
| G19A U44G | 0.158 |
| G19A U44A | 0.172 |
| C18U U36C | 0.562 |
| C18U U36A | 0.109 |
| G19C U43A | 0.127 |
| G19A A42U | 0.191 |
| G19A U53A | 0.174 |
| G19A C57A | 0.133 |
| G19A C57U | 0.178 |
| G19A C57G | 0.137 |
| G19U C33G | 0.203 |

| Variant | self-cleavage |
| --- | --- |
| G19U C33U | 0.519 |
| G19U C33A | 0.101 |
| G19U C32A | 0.281 |
| G19U C32G | 0.157 |
| G19A C39A | 0.145 |
| G19A C39U | 0.158 |
| G19A G25A | 0.0763 |
| G19A G25C | 0.151 |
| G19A G25U | 0.164 |
| G19U A23C | 0.333 |
| G19U A23U | 0.494 |
| C18U U44G | 0.726 |
| C18U U44A | 0.727 |
| C18U U44C | 0.617 |
| C18U C27G | 0.194 |
| C18U C27U | 0.121 |
| C18U C27A | 0.198 |
| C18U U55A | 0.447 |
| C18U U55C | 0.446 |
| G19U C29A | 0.161 |
| G19U C29G | 0.175 |
| G19C U64C | 0.123 |
| G19C C35A | 0.154 |
